Experimental data from paper PMC9942953, “Merlin tumor suppressor function is regulated by PIP2-mediated dimerization” (PLOS ONE, 2023).

T1: Merlin L64P, patient derived mutant, P35240
T1 chain: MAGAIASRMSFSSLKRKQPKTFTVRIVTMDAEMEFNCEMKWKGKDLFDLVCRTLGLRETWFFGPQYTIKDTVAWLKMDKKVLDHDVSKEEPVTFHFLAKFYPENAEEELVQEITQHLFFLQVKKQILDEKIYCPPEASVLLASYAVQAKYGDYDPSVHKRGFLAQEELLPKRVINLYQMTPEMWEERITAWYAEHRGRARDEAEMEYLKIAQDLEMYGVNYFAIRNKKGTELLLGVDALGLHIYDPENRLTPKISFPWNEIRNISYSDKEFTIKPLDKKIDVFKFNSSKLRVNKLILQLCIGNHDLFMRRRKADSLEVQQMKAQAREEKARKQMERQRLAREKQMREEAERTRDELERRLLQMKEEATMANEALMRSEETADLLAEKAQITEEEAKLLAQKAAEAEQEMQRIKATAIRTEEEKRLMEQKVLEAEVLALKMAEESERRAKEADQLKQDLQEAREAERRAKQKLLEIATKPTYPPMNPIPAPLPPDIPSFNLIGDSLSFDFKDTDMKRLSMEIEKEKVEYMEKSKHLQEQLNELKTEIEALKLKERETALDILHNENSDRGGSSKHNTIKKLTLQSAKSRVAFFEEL

B1: Merlin L64P, patient derived mutant, P35240 1-595 (natural protein)
chain: T1 chain
B2: Merlin ΔN18, deletion of the N-terminal 18 amino acids (domain or fragment, UniProt P35240 19-595, looked up)
chain: PKTFTVRIVTMDAEMEFNCEMKWKGKDLFDLVCRTLGLRETWFFGLQYTIKDTVAWLKMDKKVLDHDVSKEEPVTFHFLAKFYPENAEEELVQEITQHLFFLQVKKQILDEKIYCPPEASVLLASYAVQAKYGDYDPSVHKRGFLAQEELLPKRVINLYQMTPEMWEERITAWYAEHRGRARDEAEMEYLKIAQDLEMYGVNYFAIRNKKGTELLLGVDALGLHIYDPENRLTPKISFPWNEIRNISYSDKEFTIKPLDKKIDVFKFNSSKLRVNKLILQLCIGNHDLFMRRRKADSLEVQQMKAQAREEKARKQMERQRLAREKQMREEAERTRDELERRLLQMKEEATMANEALMRSEETADLLAEKAQITEEEAKLLAQKAAEAEQEMQRIKATAIRTEEEKRLMEQKVLEAEVLALKMAEESERRAKEADQLKQDLQEAREAERRAKQKLLEIATKPTYPPMNPIPAPLPPDIPSFNLIGDSLSFDFKDTDMKRLSMEIEKEKVEYMEKSKHLQEQLNELKTEIEALKLKERETALDILHNENSDRGGSSKHNTIKKLTLQSAKSRVAFFEEL
notes: Merlin isoform 1 without its unique N-terminal 18 amino acids; source: HEK 293T, co-transfected, in lysate; not shown: NanoLuc (probe copy) or EGFP (bait copy), C-terminal, kept

Assays:
[1] = biological target: T1, Merlin L64P, patient derived mutant, …; assay: co-IP; HEK 293T co-transfected with a GFP fusion and a NanoLuc fusion; lysis in TBS, 2 mM MgCl2, 0.5% NP-40; GFP-Trap_MA; ratio of bound to unbound luciferase activity normalised to GFP fluorescence; details: remark: other sources report otherwise
[2] = biological target: the molecule itself; assay: as above

| Binder | fold dimerization relative to wild type [1] [fold] | percent dimerization relative to wild type [2] [%] |
| --- | --- | --- |
| B1 | 1.28 | – |
| B2 | – | 33 |
